Data taken from the supplement of paper PMC10065799, “High-throughput profiling of sequence recognition by tyrosine kinases and SH2 domains using bacterial peptide display” (eLife, 2023).

Tests used:
[1] = test system: AncSZ; experiment: phosphorylation enrichment, bacterial display (enrichment ratio); higher = better substrate or ligand; peptides without Tyr show the background
[2] = target: EPHB1 (UniProt P54762); experiment: as above
[3] = target: EPHB2 (UniProt P29323); experiment: as above
[4] = target: FGFR1 (UniProt P11362); experiment: as above
[5] = target: FGFR3 (UniProt P22607); experiment: as above
[6] = test system: Fer (mouse); experiment: as above
[7] = target: Fes (UniProt P07332); experiment: as above
[8] = target: Fyn (UniProt P06241); experiment: as above
[9] = target: Hck (UniProt P08631); experiment: as above
[10] = target: Jak2 (UniProt O60674); experiment: as above
[11] = target: MERTK (UniProt Q12866); experiment: as above
[12] = test system: c-Abl (mouse); experiment: as above
[13] = test system: c-Src; experiment: as above
[14] = target: Grb2 SH2 (UniProt P62993); experiment: SH2 binding enrichment of the phosphorylated peptide, bacterial display (enrichment ratio); higher = better substrate or ligand; peptides without Tyr show the background
[15] = target: SHP2-C SH2; experiment: as above
[16] = target: c-Src SH2; experiment: as above
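Throughout, for SH2 binding enrichment of the phosphorylated peptide, bacterial display: peptide library displayed on the E. coli surface as eCPX fusions, selected cells deep-sequenced, score is each peptide's frequency after selection divided by its frequency in the input.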
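Throughout, for phosphorylation enrichment, bacterial display: 11-residue human phosphosite peptides and single-mutation variants displayed on the E. coli surface, counted by deep sequencing, each peptide's frequency after selection divided by its frequency in the unselected input library; frequency after pTyr selection over input frequency; kinase dosed for 20-30% of maximal phosphorylation in three min.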

Chain of Jak2 (O60674 whole entry, looked up): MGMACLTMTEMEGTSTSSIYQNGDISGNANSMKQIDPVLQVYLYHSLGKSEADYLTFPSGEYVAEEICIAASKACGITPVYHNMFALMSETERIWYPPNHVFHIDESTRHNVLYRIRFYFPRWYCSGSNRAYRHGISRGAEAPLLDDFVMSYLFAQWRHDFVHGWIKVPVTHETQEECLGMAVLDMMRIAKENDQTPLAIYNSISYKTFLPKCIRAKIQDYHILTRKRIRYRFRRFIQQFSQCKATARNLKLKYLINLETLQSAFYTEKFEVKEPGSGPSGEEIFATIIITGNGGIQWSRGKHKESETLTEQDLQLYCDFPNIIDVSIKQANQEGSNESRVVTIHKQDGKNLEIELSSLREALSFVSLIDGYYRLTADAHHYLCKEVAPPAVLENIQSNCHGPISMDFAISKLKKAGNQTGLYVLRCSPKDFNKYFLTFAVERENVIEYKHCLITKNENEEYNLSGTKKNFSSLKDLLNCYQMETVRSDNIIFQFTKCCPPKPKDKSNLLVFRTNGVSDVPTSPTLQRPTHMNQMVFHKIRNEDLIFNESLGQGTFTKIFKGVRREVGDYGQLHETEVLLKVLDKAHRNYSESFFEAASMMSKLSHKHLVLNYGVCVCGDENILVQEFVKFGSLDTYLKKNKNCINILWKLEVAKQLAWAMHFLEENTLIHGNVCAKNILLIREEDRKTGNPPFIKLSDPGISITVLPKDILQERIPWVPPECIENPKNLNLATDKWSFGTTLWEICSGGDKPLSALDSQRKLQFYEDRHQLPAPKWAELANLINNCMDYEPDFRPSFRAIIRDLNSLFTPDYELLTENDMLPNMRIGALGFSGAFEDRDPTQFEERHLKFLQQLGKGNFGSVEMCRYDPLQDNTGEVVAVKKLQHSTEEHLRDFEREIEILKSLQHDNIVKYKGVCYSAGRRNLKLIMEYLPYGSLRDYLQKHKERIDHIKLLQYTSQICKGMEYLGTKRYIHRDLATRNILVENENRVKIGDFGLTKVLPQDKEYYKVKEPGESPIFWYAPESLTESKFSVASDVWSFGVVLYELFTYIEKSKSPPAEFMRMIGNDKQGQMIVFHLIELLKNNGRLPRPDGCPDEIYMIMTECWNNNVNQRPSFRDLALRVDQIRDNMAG
Chain of EPHB2 (P29323 whole entry, looked up): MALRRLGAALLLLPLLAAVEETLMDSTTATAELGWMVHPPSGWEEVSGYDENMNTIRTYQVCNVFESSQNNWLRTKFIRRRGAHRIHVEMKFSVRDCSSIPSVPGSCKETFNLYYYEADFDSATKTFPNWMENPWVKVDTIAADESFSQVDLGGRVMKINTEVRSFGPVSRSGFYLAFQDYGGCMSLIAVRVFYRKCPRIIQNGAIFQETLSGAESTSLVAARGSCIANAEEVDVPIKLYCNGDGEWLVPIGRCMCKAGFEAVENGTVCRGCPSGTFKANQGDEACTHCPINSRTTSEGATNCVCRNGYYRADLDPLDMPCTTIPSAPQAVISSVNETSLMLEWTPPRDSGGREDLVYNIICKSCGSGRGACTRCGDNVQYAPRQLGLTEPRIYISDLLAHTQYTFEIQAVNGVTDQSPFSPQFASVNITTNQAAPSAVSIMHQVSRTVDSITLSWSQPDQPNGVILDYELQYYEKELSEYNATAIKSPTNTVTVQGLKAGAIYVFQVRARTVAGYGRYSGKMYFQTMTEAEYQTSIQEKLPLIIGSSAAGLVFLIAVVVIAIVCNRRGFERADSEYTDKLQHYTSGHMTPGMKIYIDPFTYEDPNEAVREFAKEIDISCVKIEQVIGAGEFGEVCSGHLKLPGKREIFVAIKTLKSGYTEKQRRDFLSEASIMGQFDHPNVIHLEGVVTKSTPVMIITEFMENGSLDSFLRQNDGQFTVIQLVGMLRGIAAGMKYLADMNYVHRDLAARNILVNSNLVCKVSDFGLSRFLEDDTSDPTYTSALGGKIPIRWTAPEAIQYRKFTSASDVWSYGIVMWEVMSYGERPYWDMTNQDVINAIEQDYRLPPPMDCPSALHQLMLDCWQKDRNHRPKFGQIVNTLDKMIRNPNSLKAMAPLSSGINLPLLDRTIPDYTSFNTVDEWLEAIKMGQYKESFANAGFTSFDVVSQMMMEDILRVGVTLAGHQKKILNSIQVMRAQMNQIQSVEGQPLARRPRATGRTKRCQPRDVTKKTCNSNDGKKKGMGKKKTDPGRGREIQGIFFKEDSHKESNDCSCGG
Chain of FGFR3 (P22607 whole entry, looked up): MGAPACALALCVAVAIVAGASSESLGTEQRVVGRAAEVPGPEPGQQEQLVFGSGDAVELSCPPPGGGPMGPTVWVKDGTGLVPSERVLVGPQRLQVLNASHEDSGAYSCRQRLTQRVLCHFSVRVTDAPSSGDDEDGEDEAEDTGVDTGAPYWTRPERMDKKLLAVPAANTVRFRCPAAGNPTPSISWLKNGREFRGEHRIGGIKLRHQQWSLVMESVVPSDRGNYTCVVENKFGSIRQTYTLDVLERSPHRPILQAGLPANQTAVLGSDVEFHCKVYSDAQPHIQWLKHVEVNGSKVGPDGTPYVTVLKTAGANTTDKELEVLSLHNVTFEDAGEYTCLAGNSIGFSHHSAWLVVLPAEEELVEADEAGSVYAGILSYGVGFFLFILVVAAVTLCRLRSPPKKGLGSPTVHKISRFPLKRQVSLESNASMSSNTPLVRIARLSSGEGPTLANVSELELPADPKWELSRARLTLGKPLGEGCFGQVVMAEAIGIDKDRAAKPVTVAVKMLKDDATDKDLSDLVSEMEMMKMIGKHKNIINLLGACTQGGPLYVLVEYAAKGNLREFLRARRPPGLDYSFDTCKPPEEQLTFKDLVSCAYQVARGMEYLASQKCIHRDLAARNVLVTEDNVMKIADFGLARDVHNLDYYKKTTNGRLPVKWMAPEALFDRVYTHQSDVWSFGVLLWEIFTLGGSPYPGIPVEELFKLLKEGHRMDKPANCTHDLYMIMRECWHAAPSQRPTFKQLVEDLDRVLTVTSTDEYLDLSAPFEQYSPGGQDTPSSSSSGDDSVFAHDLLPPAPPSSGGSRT
Chain of EPHB1 (P54762 whole entry, looked up): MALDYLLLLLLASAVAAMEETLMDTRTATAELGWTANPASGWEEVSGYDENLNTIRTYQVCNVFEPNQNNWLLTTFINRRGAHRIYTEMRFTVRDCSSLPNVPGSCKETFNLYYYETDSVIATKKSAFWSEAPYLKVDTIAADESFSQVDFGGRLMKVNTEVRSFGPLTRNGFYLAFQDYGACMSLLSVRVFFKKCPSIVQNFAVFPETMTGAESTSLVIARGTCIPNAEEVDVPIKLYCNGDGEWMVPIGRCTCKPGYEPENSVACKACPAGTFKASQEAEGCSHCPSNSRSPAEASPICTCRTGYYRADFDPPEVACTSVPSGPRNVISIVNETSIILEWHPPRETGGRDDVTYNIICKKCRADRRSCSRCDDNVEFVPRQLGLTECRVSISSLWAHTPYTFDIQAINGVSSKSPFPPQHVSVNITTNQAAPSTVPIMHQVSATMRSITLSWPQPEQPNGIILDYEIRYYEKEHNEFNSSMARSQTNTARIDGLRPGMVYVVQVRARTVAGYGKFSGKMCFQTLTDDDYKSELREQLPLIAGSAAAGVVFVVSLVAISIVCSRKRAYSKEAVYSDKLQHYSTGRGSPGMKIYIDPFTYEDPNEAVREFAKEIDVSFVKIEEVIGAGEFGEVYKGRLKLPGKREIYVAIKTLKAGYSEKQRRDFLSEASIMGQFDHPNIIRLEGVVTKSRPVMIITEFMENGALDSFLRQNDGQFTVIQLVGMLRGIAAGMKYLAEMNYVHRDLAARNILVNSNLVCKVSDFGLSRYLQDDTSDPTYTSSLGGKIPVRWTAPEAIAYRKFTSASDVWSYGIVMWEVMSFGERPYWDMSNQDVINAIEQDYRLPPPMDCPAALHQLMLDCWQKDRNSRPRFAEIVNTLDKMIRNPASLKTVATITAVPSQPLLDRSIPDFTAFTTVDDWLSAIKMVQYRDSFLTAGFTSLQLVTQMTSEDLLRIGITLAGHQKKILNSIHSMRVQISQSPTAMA
Chain of Hck (P08631 whole entry, looked up): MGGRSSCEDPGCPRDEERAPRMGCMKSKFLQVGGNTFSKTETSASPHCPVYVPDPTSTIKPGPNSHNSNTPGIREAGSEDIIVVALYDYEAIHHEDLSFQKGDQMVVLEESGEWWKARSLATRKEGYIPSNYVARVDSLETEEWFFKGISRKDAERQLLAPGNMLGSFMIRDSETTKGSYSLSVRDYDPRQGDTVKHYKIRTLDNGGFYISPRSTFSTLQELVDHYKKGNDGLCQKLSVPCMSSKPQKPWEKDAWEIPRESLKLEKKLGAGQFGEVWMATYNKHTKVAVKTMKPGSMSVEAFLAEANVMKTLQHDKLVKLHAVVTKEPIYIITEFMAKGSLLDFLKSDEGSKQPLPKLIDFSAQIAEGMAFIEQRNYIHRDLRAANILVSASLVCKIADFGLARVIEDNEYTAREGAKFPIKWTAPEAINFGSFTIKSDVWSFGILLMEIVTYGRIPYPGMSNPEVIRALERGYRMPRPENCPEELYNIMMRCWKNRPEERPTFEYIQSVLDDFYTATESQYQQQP
Chain of Fyn (P06241 whole entry, looked up): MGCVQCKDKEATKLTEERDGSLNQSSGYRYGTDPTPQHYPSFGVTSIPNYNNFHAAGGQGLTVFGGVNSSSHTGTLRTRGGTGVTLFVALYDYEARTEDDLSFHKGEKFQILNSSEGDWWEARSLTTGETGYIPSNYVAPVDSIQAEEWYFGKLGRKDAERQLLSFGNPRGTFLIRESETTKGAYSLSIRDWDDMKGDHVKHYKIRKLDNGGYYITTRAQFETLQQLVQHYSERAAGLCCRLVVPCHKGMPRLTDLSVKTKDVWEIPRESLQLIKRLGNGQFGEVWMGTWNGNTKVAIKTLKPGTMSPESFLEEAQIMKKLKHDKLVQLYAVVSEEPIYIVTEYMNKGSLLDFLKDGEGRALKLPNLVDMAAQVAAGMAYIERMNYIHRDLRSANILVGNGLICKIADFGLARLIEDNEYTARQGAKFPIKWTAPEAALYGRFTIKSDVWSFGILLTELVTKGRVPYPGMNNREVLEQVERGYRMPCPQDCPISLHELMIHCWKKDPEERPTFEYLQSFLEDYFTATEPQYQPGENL

SH2 binding enrichment [14]	SH2 binding enrichment [15]	SH2 binding enrichment [16]	Sequence	phosphorylation enrichment [1]	phosphorylation enrichment [2]	phosphorylation enrichment [3]	phosphorylation enrichment [4]	phosphorylation enrichment [5]	phosphorylation enrichment [6]	phosphorylation enrichment [7]	phosphorylation enrichment [8]	phosphorylation enrichment [9]	phosphorylation enrichment [10]	phosphorylation enrichment [11]	phosphorylation enrichment [12]	phosphorylation enrichment [13]
1.09	0.788	0.658	DDERGYRRVRC [GIGYF2_Y268_S273C]	0.75	0.519	0.551	0.533	0.562	0.513	0.882	0.529	0.483	0.834	0.438	0.647	0.426
0.531	0.942	0.432	DDHFTYSRYPW [LY75_Y888]	1.49	4.66	7.92	0.576	0.969	0.642	1.13	4.82	6.62	1.13	1.23	1.86	5.2
0.994	0.86	0.601	DFFDLYGGEKK [PTPN11_Y66_F71K_YF]	1.17	0.511	0.79	0.562	0.772	0.566	1.38	1.32	2.81	1.16	0.499	0.827	2.26
0.672	0.523	0.354	DFPMGYPSFLA [TBCK_Y153_I151M_YF]	0.64	0.496	0.469	0.424	0.49	0.432	0.832	0.424	0.358	0.691	0.429	0.592	0.428
0.825	0.827	0.572	DFPMGYPSYLA [TBCK_Y153_I151M]	0.65	0.399	0.453	0.412	0.473	0.362	0.751	0.443	0.367	0.663	0.464	0.507	0.416
0.768	0.618	0.386	DFSLKYPTDIP [APC_Y1183_A1184P_YF]	1.03	0.528	0.599	0.459	0.685	0.616	1.18	0.452	0.46	0.943	0.52	0.702	0.534
0.984	0.853	0.635	DGMADCSDPSF [CDC5L_Y459_Y459C_YF]	1.21	0.627	0.659	0.533	0.701	0.627	1.29	0.524	0.6	1.01	0.525	1	0.582
0.857	0.896	0.623	DIDKIYIRTGI [PIK3CA_Y355_V356I]	1.25	0.585	0.543	0.521	0.673	0.839	1.01	0.479	0.481	1.06	0.342	0.576	0.395
0.894	2.51	1.31	DIPIRYSIMGV [CDH4_Y205_T208M]	1.13	0.473	0.603	0.481	0.695	0.421	1.14	0.455	0.352	1	0.523	0.723	0.448
0.984	0.821	0.681	DKNSSYFADWF [TUBB8_Y340_L345F]	0.992	0.676	0.507	2.44	1.62	0.345	1.01	0.479	0.397	1.32	2.04	0.613	0.435
0.654	0.511	0.43	DLEKTYNTYRS [B4GALNT2_Y538_A533D]	0.848	0.382	0.509	0.554	0.703	0.401	0.788	0.845	0.761	0.823	0.424	0.441	1.03
0.867	0.598	0.552	DLKFHYDNTAG [KDR_Y1214_P1210L]	0.804	0.515	0.504	0.517	0.661	0.466	1	0.484	0.462	0.889	0.415	0.663	0.426
0.991	0.693	5.24	DPAFGYEDFTR [SESN2_Y323_T320A]	1.08	0.455	0.577	0.569	0.775	0.457	1.21	0.533	0.594	0.987	0.445	0.764	0.59
1.11	1.81	1.4	DPHECYAKVFN [ALB_Y394_D399N]	0.844	0.549	0.586	0.589	0.643	0.529	0.952	0.552	0.81	0.847	0.504	0.91	0.624
0.834	0.661	0.458	DPLLTHRFPPK [LMNA_Y481_Y481H]	0.434	0.288	0.242	0.459	0.43	0.36	0.521	0.411	0.381	0.571	0.421	0.395	0.406
0.747	0.66	0.605	DPLLTYRFPPN [LMNA_Y481_K486N]	0.882	0.446	0.455	0.766	0.861	0.472	0.751	0.51	0.503	0.768	0.497	0.649	0.65
0.754	0.554	0.597	DPNQQYFIAMD [TBX15_Y159_H156N_YF]	1.07	0.466	0.443	0.892	0.866	0.403	0.934	0.444	0.493	0.911	0.356	0.672	0.482
0.673	0.585	0.607	DQIDTYELSGG [DNM1_Y354]	1.38	0.423	0.735	0.54	0.695	0.479	1.12	1.29	0.752	0.866	0.481	0.616	1.28
0.956	0.66	0.841	DQVEQYKKELE [LMNA_Y259]	1.32	0.67	0.644	0.561	0.688	0.534	1.2	0.516	0.509	0.956	0.527	0.878	0.603
0.94	0.756	0.671	DRLPSYLDKVR [KRT12_Y139_A137P]	0.62	0.371	0.331	0.408	0.485	0.436	0.665	0.454	0.794	0.616	0.656	0.494	0.479
0.746	0.699	0.523	DRPSEYAARQL [ANXA13_Y90]	0.598	0.408	0.456	0.445	0.482	0.341	0.655	0.453	0.428	0.498	0.437	0.579	0.389
0.763	0.735	0.501	DTLLEYLENPK [CYCS_Y68_M66L]	1.45	0.7	0.535	0.503	0.828	0.576	1.25	0.493	0.511	1.04	0.448	0.668	0.463
0.781	0.451	0.451	DTYDPYLDIAL [USP36_Y268_V271I]	1.6	1.03	0.892	0.901	0.968	0.721	1.55	1.47	1.06	1.32	0.611	0.982	2.42
0.889	0.555	0.433	DVRQEYPGMIL [PLXND1_Y616]	0.675	0.413	0.517	0.455	0.588	0.394	0.949	0.41	0.497	0.76	0.487	0.669	0.403
0.741	1	0.924	DVYVSYDYGKS [SORL1_Y139]	1.45	2.95	5.62	6.8	4.03	2.42	0.98	7.46	4.33	0.795	4.1	1.03	5.25
0.707	0.609	0.348	EAEALYQTKFQ [KRT73_Y325]	1.33	0.58	0.645	0.534	0.687	0.964	1.19	1.32	2.65	0.976	0.569	0.85	1.44
0.835	0.649	0.406	EAMPDYKKQLR [SPATA18_Y229_S227P]	0.608	0.378	0.394	0.399	0.444	0.474	0.819	0.309	0.296	0.623	0.322	0.469	0.378
1.01	0.612	0.446	EAVKNYTEKRG [PBRM1_Y672_D674E]	0.626	0.318	0.344	0.394	0.449	0.564	0.514	0.328	0.388	0.478	0.384	0.433	0.335

Sequence	SH2 binding enrichment [14]	SH2 binding enrichment [15]	SH2 binding enrichment [16]	phosphorylation enrichment [1]	phosphorylation enrichment [2]	phosphorylation enrichment [3]	phosphorylation enrichment [4]	phosphorylation enrichment [5]	phosphorylation enrichment [6]	phosphorylation enrichment [7]	phosphorylation enrichment [8]	phosphorylation enrichment [9]	phosphorylation enrichment [10]	phosphorylation enrichment [11]	phosphorylation enrichment [12]	phosphorylation enrichment [13]
DTDSSYCIPTA [GAB1_Y373]	0.95	0.854	0.741	1.99	0.692	0.598	0.592	0.65	0.519	1.18	0.518	0.578	1.07	1.01	0.73	0.497
